Experimental data: patent US20260061042A1, “POLYNUCLEOTIDE COMPOSITIONS AND USES THEREOF” (Pfizer Inc., priority 2024, published 2026)
Positions count from the first letter of the chain named. In names and notes the source's numbering stands. Several values for one entry are separate records, joined by “and”; a condition that tells them apart may be missing. Identical values can stand only once. Entries after “also recorded” stand apart in the source; their conditions may differ.

T1: E. coli CFT073 PapG-II lectin domain PapGLD variant N96S G104A, SEQ ID NO: 16 (Escherichia coli, UniProt A0A0H2VAQ6, G124A/N116S)
T1 sequence (A0A0H2VAQ6 with tags, fused parts or gaps N116S/G124A): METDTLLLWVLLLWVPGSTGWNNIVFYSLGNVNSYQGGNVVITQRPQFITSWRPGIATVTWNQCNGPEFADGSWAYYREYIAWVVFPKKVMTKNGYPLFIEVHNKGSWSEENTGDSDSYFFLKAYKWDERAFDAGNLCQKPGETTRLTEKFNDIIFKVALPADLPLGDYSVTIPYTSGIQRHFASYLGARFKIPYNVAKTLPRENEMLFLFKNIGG

B1: PapG^LD N96S R170A: PapG lectin domain N96S with R170A ligand binding site mutation; SEQ ID NO: 23 (protein)
chain: T1 sequence (A0A0H2VAQ6 with tags, fused parts or gaps N116S/G124A) with A124G, R190A
B2: PapG^LD N96S K172A: PapG lectin domain N96S with K172A ligand binding site mutation; SEQ ID NO: 24 (protein)
chain: T1 sequence (A0A0H2VAQ6 with tags, fused parts or gaps N116S/G124A) with A124G, K192A
B3: PapG^LD N96S W107A: PapG lectin domain N96S with W107A ligand binding site mutation; SEQ ID NO: 22 (protein)
chain: T1 sequence (A0A0H2VAQ6 with tags, fused parts or gaps N116S/G124A) with A124G, W127A

Assays:
[1] = test system: E. coli strain CFT073 agglutination of human red blood cells; assay: PapG hemagglutination (HA) assay; assay type: cell-based; details: pre-incubation with E. coli CFT073 WT strain, human RBC
Method: 16. PapG Hemagglutination (HA) Assay
(§1) A PapG HA assay was developed based on procedures described previously. WT E. coli strain CFT073 bacteria were streaked out from a frozen glycerol stock for single colonies on a tryptic soy blood agar plate. To grow bacteria for use in the HA assay, bacteria were cultured overnight in Luria Bertani liquid media at 37° C. and shaking at 230 rpm. The next morning, bacteria were washed once with 1×PBS and normalized to an OD540 of 1.0 in PBS. 30 μL of bacteria were then placed in a V-bottom 96-well plate (Corning, 3894) and serially diluted across the plate. […] After this incubation, 60 μL of a 1.75% red blood cell (Human Red Blood Cells, Washed, Rockland Immunochemicals R407-0050) solution (diluted from 10% stock using 1×PBS) was added to all the wells in the plate. The plate was incubated for 2 hours at 4° C. and then imaged using a light box and camera or ImageQuant System. To collect quantitative data, assay plates were analyzed using a Clariostar instrument. Absorbance was measured at a wavelength of 540 nm, which was the maximum absorbance observed using an RBC only control well, and a read diameter of 4 mm within each well. Absorbance was normalized using blank controls (1×PBS only).
7. Development of a Hemagglutination (HA) Assay as a Functional Assay to Evaluate Sera from PapG Immunized Animals. […]

[2] = test system: E. coli strain CFT073 (PapG-dependent agglutination of human red blood cells); assay: PapG hemagglutination (HA) assay; assay type: cell-based, Escherichia coli CFT073; human red blood cells; details: pre-incubation of E. coli CFT073 WT strain with GbO3, then human RBCs
Method: as §1
PapG mediates the ability of E. coli to agglutinate human red blood cells (RBC).

[3] = molecular target: T1, E. coli CFT073 PapG-II lectin domain PapGLD variant N96S G104A, SEQ ID NO: 16; assay: SYPRO orange thermal shift with GbO3; assay type: binding; details: shift in melting temperature in the presence of GbO3 vs apo; 3 replicates; PBS pH 7.4, 4% DMSO
Method: (§2) PapG proteins were added to assay buffer (consisting of 4% DMSO, 1:1000 dilution of SYPRO orange (Invitrogen S6650) in PBS pH 7.4) at a final concentration of […]. Melt curves were analyzed in a QuantStudio 6 Real-time PCR system (ThermoFisher) using a dissociation protocol from 25° C. to 99° C., at 0.05° C./second. ROX was specified as the reporter.
(§3) The thermal stability of PapG WT and mutant proteins were determined using a SYPRO orange thermal shift-based differential scanning fluorimetry assay, wherein Tm designates the temperature at which 50% of the protein is unfolded. Non-covalent ligands often stabilize protein targets upon specific binding, resulting in an increase in protein melting temperature. Tm were therefore determined in the presence and absence of GbO3 for PapG, and the difference in Tm (ΔTm) of protein in the presence of ligand relative to the apo form was calculated.

[4] = Thermal shift in the presence of GbO3; assay type: binding; details: in the presence of GbO3 relative to the apo form
Method: as §2
The thermal stability of PapG WT and mutant proteins were determined using a SYPRO orange thermal shift-based differential scanning fluorimetry assay, wherein Tm designates the temperature at which 50% of the protein is unfolded. Non-covalent ligands often stabilize protein targets upon specific binding, resulting in an increase in protein melting temperature.

[5] = Thermal shift (SYPRO orange) melting temperature, apo form; assay type: physicochemical; details: apo state, PBS pH 7.4
Method: as §2, §3

[6] = PapG Luminex ligand binding assay with globoside GbO4; details: result in words
Method: 9. PapG Ligand Binding Assay with Globoside GbO4
To determine the ability of PapGLD mutants to bind the porcine derived globotetraosyl ceramide ligand GalNAc-Gal-Gal-Glc-ceramide (GbO4), a Luminex ligand binding assay was developed. Surfactant Protein-A (SP-A) was coupled to the surface of MagPlex beads by EDC/NHS, to capture the lipid tail of the globotetraosyl ceramide. The Globotetraosyl ceramide/SP-A beads were incubated with an eight-point threefold titration of PapG in a 96 well flat bottom white plate with final volume of 100 microliters of 50 mM HEPES PH 7.4, 10 mM NaCl, 0.0005% Tween 20 shaking at 300 rpm, 4° C. overnight. After 20-24 hours the ligand binding plates were read on a FlexMap 3D plate reader for measurement of well-bead region specific MFI. Ligand binding equilibrium dissociation constants (Kd) were calculated assuming one site specific binding and interpolated using non-linear curve fitting (GraphPad Prism) as the ligand concentration needed to achieve half-maximal binding. The Luminex derived apparent Kd values are based on approximately fifty bead counts per assay sample.
(§4) Binding of PapG proteins to GbO2 or GbO4 ligands was evaluated using a Luminex platform wherein ligands were coupled to MagPlex beads via surfactant protein A (for […]) or directly using […] conjugation (for […]). This assay was used to rank order binding affinities of the mutants, reported as Kd values interpolated from protein antigen titration curves (Table 7).

[7] = PapG Luminex ligand binding assay with globoside compound GbO2Mpo; details: result in words
Method: 10. PapG Ligand Binding Assay with Globoside Compound GbO2Mpo
To determine Luminex ligand binding affinities of PapG mutants for the synthetic globoside ligand Gal-Glc-phenoxy-octyl-amine (GbO2Mpo), a Luminex ligand binding assay was developed based on the direct coupling of the amine reactive globoside ligand to the EDC/NHS activated carboxylic surface of MagPlex beads. Synthesis of GbO2Mpo ligand with an octyl amine linker (for coupling to beads) was performed via methods described previously. The GbO2Mpo beads were incubated with an 8-point, threefold titration of PapG in a 96-well flat bottom white plate with final volume of 100 μl of 50 mM HEPES pH 7.4, 10 mM NaCl, 0.0005% Tween 20 shaking at 300 rpm, 4° C. overnight. After 20-24 hours the ligand binding plates were read on a FlexMap 3D plate reader for measurement of well-bead region specific MFI.
as §4

Row | Molecule | inhibition of hemagglutination [1] | inhibition of hemagglutination (in words) [2] | ΔTm (Average) [3] | ΔTm (Average) [4] | Tm (Ave.) [5] | binding to GbO4 ligand [6] | binding to GbO2 ligand [7]
1 | Globotriaosylceramide [GbO3] [listing 1 of 2 here] | efficiently blocks agglutination of RBCs; also recorded: concentration-dependent inhibition of hemagglutination |  |  |  |  |  | 
2 | Globotriaosylceramide [GbO3] [listing 2 of 2 here] |  | efficiently blocks agglutination of RBCs; also recorded: concentration-dependent inhibition of hemagglutination | < 0.5 °C and 0.22 °C |  |  |  | 
3 | B1 |  |  |  | 0.33 °C | 55.83 °C | prevent binding to GbO4; also recorded: lower the binding affinity; also recorded: eliminate ligand binding | 
4 | B2 |  |  |  | 0.42 °C | 56.38 °C | prevent binding to GbO4; also recorded: reduced binding; also recorded: lower the binding affinity; also recorded: eliminate ligand binding | reduced binding
5 | B3 |  |  |  | 0.22 °C | 62.64 °C | prevent binding to GbO4; also recorded: lower the binding affinity; also recorded: eliminate ligand binding | 
